Consider ten molecules from paper PMC9638019, “The archetypal gene transfer agent RcGTA is regulated via direct interaction with the enigmatic RNA polymerase omega subunit”.

Data set [1] addresses Maltose Binding Protein-GafA fusion protein (R. capsulatus). Briefly: SEC; analytical gel filtration, Superdex 200 increase 10/200 GL, MBP binding buffer (200 mM NaCl, 20 mM Tris, 1 mM EDTA; pH 7.4); molecular weight estimated from a standard curve.
Data set [2] concerns the target MBP-GafA-Cx^87–382 (R. capsulatus). The data set is described as above.
Data set [3] addresses MBP-GafA-C^221–382 (R. capsulatus). The description is as above.
Data set [4] deals with T1, GafA-Nc1-86 (UniProt D5AUH1 1-86).
T1 sequence: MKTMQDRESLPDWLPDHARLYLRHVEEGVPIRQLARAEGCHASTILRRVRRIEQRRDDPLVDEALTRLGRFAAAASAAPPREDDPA
The data set can be described thus: EMSA; specific: shift remains with 500-fold non-specific competitor; 25 mM HEPES pH 8.0, 50 mM K-glutamate, 50 mM MgSO4, 1 mM DTT, 0.1 mM EDTA, 0.05% Triton X-100, 4% glycerol, 1 ug poly dI:dC per 10 ul, 80 nM Cy5-dsDNA, 30 min room temperature; 7% acrylamide, 1x TBE. The note with it: protein: recombinant; tags: none (MBP removed with 3C protease); label: 5'-Cy5 on one strand; blunt.

Data set [5] deals with T1, GafA-Nc1-86. The data set can be described thus: EMSA; non-specific: shift lost with 500-fold non-specific competitor; 25 mM HEPES pH 8.0, 50 mM K-glutamate, 50 mM MgSO4, 1 mM DTT, 0.1 mM EDTA, 0.05% Triton X-100, 4% glycerol, 1 ug poly dI:dC per 10 ul, 80 nM Cy5-dsDNA, 30 min room temperature; 7% acrylamide, 1x TBE. The note with it: protein: recombinant; tags: none (MBP removed with 3C protease); label: 5'-Cy5 on one strand; blunt.

Data set [6] has as its target T2, MBP-GafA-C221-382 (UniProt D5AUH1 221-382).
T2 sequence: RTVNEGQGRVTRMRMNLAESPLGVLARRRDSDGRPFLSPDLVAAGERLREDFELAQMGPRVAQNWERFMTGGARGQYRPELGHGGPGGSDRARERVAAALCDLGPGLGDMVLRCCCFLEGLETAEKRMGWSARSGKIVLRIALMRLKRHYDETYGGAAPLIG
The data set can be described thus: EMSA; poly dI:dC; 25 mM HEPES pH 8.0, 50 mM K-glutamate, 50 mM MgSO4, 1 mM DTT, 0.1 mM EDTA, 0.05% Triton X-100, 4% glycerol, 1 ug poly dI:dC per 10 ul, 80 nM Cy5-dsDNA, 30 min room temperature; 7% acrylamide, 1x TBE. The settings on record: protein: recombinant; tags: N-terminal MBP; chain copies: 2; label: 5'-Cy5 on one strand; blunt. For orientation: Mobility shift assays separate free from complexed probe on a gel.

The target in data set [7] is T1, GafA-Nc1-86. Briefly: EMSA; non-specific; 25 mM HEPES pH 8.0, 50 mM K-glutamate, 50 mM MgSO4, 1 mM DTT, 0.1 mM EDTA, 0.05% Triton X-100, 4% glycerol, 1 ug poly dI:dC per 10 ul, 80 nM Cy5-dsDNA, 30 min room temperature; 7% acrylamide, 1x TBE. The note with it: protein: recombinant; tags: none (MBP removed with 3C protease); label: 5'-Cy5 on one strand; blunt.

Turning to “Maltose Binding Protein-GafA fusion protein (natural protein)”, the stoichiometry N (as a rule, the number of molecules, sites or subunits per partner or assembly) in data set [1] was 2.
As to MBP-GafA-Cx^87–382 (domain or fragment), in data set [2], the stoichiometry N is 2.
As to MBP-GafA-C^221–382 (domain or fragment), the stoichiometry N in data set [3] is 2.

B1: pGTA3 (dsDNA)
DNA 1: GCGCCGCGGGTGACCGTGTGCGCTTTTTTCATTTCGCTCGTGCGGACAGG
DNA 2: CCTGTCCGCACGAGCGAAATGAAAAAAGCGCACACGGTCACCCGCGGCGC
Take B1: the binding result in data set [4] was “binds”.

B2: pGTA1 (dsDNA)
DNA 1: TCCGGGGTTTTTTCTTTTCAGCGGGTGCAACCCTGAATATAGCACTTGAC
DNA 2: GTCAAGTGCTATATTCAGGGTTGCACCCGCTGAAAAGAAAAAACCCCGGA
For the molecule B2, the binding result in data set [4] is “binds”.

B3: pGTA2 (dsDNA)
DNA 1: TTTGCGAACGCTTCAAGGTAGAGATAAGGCATGCTAGGAGAGGTGGGCAA
DNA 2: TTGCCCACCTCTCCTAGCATGCCTTATCTCTACCTTGAAGCGTTCGCAAA
For the molecule B3, the binding result in data set [5] and in data set [6] was “binds” throughout.

B4: pGafA3 (dsDNA)
DNA 1: CGCTCAACCGAACGCTGCGTTTGGAAATCTTTAGAGTTTATAAAGAATTT
DNA 2: AAATTCTTTATAAACTCTAAAGATTTCCAAACGCAGCGTTCGGTTGAGCG
In the case of B4, the binding result in data set [6] is recorded as “binds”.

B5: pGafA1 (dsDNA)
DNA 1: TCGAGATCGCCCCATTTCTTAACCAAGGGGTAACCAAAGCAACCCACGGT
DNA 2: ACCGTGGGTTGCTTTGGTTACCCCTTGGTTAAGAAATGGGGCGATCTCGA
In the case of B5, the binding result in data set [7] was “binds”.

B6: pGafA2 (dsDNA)
DNA 1: TGCAGATGCCGTTTGCGCTATCTGACTGCCAGCCTGTCGATGGGAGACCGGAGATGAAGA
DNA 2: TCTTCATCTCCGGTCTCCCATCGACAGGCTGGCAGTCAGATAGCGCAAACGGCATCTGCA
As to B6, the binding result in data set [7] was “binds”.

B7: pGTA4 (dsDNA)
DNA 1: TTCATTTCGCTCGTGCGGACAGGCATGAGAGGCGGGTCACGCAAGACATG
DNA 2: CATGTCTTGCGTGACCCGCCTCTCATGCCTGTCCGCACGAGCGAAATGAA
In the case of B7, the binding result in data set [5] was “binds”.
